How the values were obtained:
Test in all cases: flow cytometry on transfected HEK293 cells;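 note: antibodies applied at 50 µg/ml, binding called specific when fluorescence exceeds the mean signal on a negative control chicken or mouse MET construct plus four SD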
Mouse Blade 1-4 = target: T1, Mouse Blade 1-4
T1 construct: human/mouse chimera on transfected HEK293 cells; also called AA 25-295
Procedure: (§1) Cut-off values defined as the average fluorescence signal of all antibodies tested at 50 μg/ml to the negative control chicken or mouse MET construct+four standard deviations were employed to discriminate background binding from specific binding for the domain exchange or blade exchange constructs.
T1 MET ECD-SV5-GPI fusion: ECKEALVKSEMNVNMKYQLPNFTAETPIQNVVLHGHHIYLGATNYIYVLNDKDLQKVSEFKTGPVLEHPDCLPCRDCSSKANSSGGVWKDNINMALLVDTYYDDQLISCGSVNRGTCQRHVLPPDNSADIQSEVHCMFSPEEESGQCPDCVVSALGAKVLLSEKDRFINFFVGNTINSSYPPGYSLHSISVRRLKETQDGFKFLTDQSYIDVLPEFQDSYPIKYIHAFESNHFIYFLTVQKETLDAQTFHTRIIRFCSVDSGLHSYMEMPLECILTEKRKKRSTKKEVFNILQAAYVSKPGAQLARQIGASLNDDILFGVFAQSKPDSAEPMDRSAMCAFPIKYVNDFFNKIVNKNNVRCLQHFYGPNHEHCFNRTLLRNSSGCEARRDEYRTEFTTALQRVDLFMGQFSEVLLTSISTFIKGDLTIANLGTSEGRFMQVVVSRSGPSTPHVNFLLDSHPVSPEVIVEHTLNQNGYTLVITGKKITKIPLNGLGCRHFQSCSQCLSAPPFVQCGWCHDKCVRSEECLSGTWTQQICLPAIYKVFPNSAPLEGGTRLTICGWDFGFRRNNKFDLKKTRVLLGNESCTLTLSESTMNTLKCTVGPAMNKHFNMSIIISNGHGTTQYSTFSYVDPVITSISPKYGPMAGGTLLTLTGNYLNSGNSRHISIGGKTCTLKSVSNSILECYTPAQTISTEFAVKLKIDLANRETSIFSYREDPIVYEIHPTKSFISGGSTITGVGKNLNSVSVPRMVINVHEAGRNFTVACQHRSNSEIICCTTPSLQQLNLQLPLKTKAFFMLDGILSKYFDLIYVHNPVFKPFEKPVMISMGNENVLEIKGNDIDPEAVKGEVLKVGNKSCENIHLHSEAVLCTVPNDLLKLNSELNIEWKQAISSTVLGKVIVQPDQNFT

Mouse Blade 1-6 = target: T2, Mouse Blade 1-6
T2 construct: human/mouse chimera on transfected HEK293 cells; also called AA 25-479
Procedure: as §1
T2 MET ECD-SV5-GPI fusion: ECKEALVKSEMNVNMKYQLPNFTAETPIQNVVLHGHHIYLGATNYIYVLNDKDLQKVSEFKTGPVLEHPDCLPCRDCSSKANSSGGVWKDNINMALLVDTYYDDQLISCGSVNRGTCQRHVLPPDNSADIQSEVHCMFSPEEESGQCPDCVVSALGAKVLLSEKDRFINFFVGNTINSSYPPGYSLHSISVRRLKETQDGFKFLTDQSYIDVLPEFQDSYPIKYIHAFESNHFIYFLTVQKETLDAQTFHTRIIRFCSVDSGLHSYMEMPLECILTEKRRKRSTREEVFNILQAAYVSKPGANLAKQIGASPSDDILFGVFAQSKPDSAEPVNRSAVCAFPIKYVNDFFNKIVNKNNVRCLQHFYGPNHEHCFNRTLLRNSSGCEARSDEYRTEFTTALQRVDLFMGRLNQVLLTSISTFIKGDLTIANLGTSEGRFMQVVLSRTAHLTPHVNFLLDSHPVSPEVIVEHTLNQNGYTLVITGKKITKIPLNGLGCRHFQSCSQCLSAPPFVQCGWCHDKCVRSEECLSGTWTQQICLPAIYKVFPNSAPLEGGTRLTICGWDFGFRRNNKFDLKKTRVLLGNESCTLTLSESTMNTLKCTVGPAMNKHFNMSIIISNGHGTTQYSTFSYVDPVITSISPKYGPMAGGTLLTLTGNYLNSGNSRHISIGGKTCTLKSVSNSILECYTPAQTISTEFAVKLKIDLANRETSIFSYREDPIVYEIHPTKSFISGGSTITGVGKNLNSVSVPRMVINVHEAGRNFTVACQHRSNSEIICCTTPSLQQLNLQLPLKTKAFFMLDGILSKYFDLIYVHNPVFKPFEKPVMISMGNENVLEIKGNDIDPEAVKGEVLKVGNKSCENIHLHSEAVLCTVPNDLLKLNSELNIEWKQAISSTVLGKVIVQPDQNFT

LS4 = target: T3, LS4
T3 construct: human/mouse chimera on transfected HEK293 cells; also called AA 25-371
Procedure: as §1
T3 MET ECD-SV5-GPI fusion: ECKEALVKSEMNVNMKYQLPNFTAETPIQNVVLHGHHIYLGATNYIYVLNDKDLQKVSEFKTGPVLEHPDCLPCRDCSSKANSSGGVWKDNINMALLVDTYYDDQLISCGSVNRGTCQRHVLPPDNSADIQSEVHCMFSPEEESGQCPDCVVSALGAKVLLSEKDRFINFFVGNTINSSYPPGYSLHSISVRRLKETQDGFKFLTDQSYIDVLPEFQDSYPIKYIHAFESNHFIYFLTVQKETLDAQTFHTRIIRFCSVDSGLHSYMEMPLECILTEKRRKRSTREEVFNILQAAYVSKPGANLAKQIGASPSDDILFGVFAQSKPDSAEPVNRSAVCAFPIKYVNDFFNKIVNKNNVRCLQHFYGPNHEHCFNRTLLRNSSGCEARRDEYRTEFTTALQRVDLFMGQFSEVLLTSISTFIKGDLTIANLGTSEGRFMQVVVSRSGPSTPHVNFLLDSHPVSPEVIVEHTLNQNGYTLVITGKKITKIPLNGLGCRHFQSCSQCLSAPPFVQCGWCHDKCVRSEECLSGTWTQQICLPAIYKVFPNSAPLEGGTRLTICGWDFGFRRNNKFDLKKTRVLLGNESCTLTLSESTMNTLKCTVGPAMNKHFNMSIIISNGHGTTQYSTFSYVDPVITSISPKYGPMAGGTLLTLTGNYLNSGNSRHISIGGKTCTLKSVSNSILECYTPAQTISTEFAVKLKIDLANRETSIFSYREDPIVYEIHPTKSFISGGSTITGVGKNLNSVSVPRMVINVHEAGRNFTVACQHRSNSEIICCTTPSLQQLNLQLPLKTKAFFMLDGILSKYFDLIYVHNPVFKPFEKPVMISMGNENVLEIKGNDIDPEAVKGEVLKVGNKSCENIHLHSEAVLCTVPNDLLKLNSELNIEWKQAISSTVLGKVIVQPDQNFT

Measured: binding result

B1: humanized antibody 9338 (antibody, human IgG1, kappa, V domains shown)
VH: QVQLVQSGAEVKKPGSSVKVSCKASGYTFTSYWMHWVRQAPGQGLEWMGYINPSSGHIENNQKFKDRVTITADKSTSTAYMELSSLRSEDTAVYYCARGRFAYWGQGTLVTVSS
VL: EIVLTQSPATLSLSPGERATLSCSASSSVSSGYLYWYQQKPGQAPRLLIYSTSNLASGIPARFSGSGSGTDFTLTISSLEPEDFAVYYCHQWSSYPFTFGSGTKLEIKR
notes: also called Hu9338; hu9338
no binding (tested: 50 µg/ml): Mouse Blade 1-4 | Mouse Blade 1-6 | LS4

B2: humanized antibody 9006 (antibody, human IgG1, kappa, V domains shown)
VH: QVQLVQSGSELKKPGASVKVSCKASGYTFTNFRMNWVKQAPGQGLKWMGWINTYTGEPTYVDDLKGRFVFSLDTSVSTAYLQISSLKAEDTAVYYCARKGIARAMDYWGQGTTVTVSS
VL: DIVMTQSPDSLAVSLGERATINCKSSQSLLDSGNQKNYLAWYQQKPGQPPKLLIFGASTRESGVPDRFSGSGSGTDFTLTISSLQAEDVAVYYCQNDHSYPYTFGQGTKLEIKR
notes: also called Hu9006; hu9006
no binding (tested: 50 µg/ml): Mouse Blade 1-4 | Mouse Blade 1-6 | LS4

Reference: patent US20180327500A1 (SYMPHOGEN A S, published 2018)
